In doi:10.1101/2021.10.11.463904 (bioRxiv, 2021):
Where two headings read alike, the source gives them in different places. Ends that are not written are not given here. * marks the point of attachment. FITC = O=C1OC2(c3ccc(O)cc3Oc3cc(O)ccc32)c2ccc(NC(=S)*)cc21; Ahx = NCCCCCC(=O)O

Key:
[1] = target: FITC-Mature-1cys (Mus musculus) (UniProt P09535); assay: fluorescence polarisation
[2] = target: FITC-Mature-1cys (Mus musculus) (UniProt P09535); assay: fluorescence polarisation; remark: listed apart in the source
[3] = target: T1, BiP (UniProt P20029 20-655); assay: fluorescence polarisation
[4] = target: T1, BiP; assay: fluorescence polarisation; remark: listed apart in the source
[5] = target: the molecule itself; assay: dynamic light scattering
[6] = target: BSA (bovine (from the name BSA), UniProt P02769 25-607); assay: fluorescence polarisation
[7] = target: T1, BiP; assay: fluorescence polarisation; remark: listed apart in the source

T1 sequence (P20029 20-655): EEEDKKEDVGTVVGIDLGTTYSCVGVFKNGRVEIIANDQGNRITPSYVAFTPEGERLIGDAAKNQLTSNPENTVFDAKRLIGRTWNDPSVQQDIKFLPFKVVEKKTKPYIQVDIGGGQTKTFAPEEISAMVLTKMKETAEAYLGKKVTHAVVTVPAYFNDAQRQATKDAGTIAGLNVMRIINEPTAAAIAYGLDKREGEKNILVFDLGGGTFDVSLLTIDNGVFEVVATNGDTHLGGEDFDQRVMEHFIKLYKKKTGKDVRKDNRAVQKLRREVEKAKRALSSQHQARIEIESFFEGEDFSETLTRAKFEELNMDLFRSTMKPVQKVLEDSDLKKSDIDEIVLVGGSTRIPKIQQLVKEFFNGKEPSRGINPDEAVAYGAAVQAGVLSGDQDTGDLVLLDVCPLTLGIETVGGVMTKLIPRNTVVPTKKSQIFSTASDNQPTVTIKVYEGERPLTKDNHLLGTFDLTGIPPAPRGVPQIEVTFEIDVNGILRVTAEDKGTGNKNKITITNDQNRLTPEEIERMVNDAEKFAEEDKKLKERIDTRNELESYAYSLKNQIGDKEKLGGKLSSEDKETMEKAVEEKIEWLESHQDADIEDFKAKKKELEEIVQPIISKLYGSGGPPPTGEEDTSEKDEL
Sequence of BiP (from UniProt P20029 20-655) (natural protein) (P20029 20-655): as above
Sequence of FITC-Mature-1cys (Mus musculus) (P09535 25-91): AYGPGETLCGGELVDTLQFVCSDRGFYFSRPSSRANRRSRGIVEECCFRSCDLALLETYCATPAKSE
Sequence of BSA (P02769 25-607): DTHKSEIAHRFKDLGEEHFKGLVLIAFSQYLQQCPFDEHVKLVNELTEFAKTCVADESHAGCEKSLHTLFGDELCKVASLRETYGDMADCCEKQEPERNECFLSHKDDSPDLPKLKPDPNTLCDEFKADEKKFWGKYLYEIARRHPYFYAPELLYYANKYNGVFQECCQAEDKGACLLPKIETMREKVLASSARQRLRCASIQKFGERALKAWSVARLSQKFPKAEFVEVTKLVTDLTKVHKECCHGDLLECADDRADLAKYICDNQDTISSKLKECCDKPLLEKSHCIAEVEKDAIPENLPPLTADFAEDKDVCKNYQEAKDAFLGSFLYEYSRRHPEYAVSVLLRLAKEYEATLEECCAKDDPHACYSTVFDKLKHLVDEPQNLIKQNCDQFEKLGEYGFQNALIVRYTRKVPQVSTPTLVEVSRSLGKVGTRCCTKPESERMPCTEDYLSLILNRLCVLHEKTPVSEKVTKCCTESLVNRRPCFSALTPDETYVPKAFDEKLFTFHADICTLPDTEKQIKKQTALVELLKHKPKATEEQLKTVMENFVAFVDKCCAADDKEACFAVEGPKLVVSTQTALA

Row | Molecule | Kd [3] [µM] | Kd [4] [µM] | also measured
1 | BiP (from UniProt P20029 20-655) (natural protein) | – | – | Kd [1]: 9.7 µM; Kd [2]: 2.7 µM
2 | {FITC-Ahx}-EAKRHRPLIVLPPKDPAHG [FITC-E-peptide 151-169] | 15 ± 1 | – | –
3 | RDVC(FITC‑maleimide)TSQAVLPDDFPRYPVGKFFQYDTWR (domain or fragment) [FITC-E-peptide 92-120] | 0.67 ± 0.17 | 8 ± 3.8 | –
4 | E-peptide (domain or fragment) RDVCTSQAVLPDDFPRYPVGKFFQYDTWRQSAGRLRRGLPALLRARRGRMLAKELKEFREAKRHRPLIVLPPKDPAHGGASSEMSSNHQ | – | – | binding result [5]: binds
5 | {FITC-Ahx}-DDFPRYPVGKFFQYDTWR [FITC-E-peptide 103-120] | 0.95 ± 0.17 | 13 ± 2 | Kd [6]: 13 ± 2 µM; Kd [7]: 0.46 ± 0.05 µM
6 | {FITC-Ahx}-QSAGRLRRGLPALLRARRG [FITC-E-peptide 121-139] | 5.3 ± 0.6 | – | –
7 | RDVC(FITC‑maleimide)TSQAVLPDDFPRYPVGKFFQYDTWRQSAGRLRRGLPALLRARRG (domain or fragment) [FITC-E-peptide 92-139] | 0.52 ± 0.13 | 1.9 ± 0.6 | –
